The source of these data is paper PMC11163200, “C3d-Targeted factor H inhibits tissue complement in disease models and reduces glomerular injury without affecting circulating complement” (Molecular Therapy, 2024).

One may read the Kd as the free concentration of one partner at which half of the binding sites on the other are occupied at equilibrium, for simple one-to-one binding.

Holding throughout (settings): both partners purified
Experiment [1] addresses T1, recombinant C3d ( (human, cynomolgus monkey or …, UniProt P01024 1002-1303)).
T1 construct: C3d fragment of complement C3, recombinant, amine-coupled to the CM5 chip; source: recombinant
Kind of experiment: SPR; Biacore 3000 or T200, 25°C; recombinant C3d amine-coupled on a CM5 chip at low density (10 RU); CR2-fH1–5 injected at 0–1,000 nM, 30 μL/min, 120 s association, 180 s dissociation; Langmuir 1:1 fit. A general note: In SPR one partner is held on a chip, and binding of the other changes the refractive index at the surface.

Experiment [2] has as its target T1, recombinant C3d. Kind of experiment: SPR; Biacore 3000 or T200, 25°C; recombinant C3d amine-coupled on a CM5 chip at medium-high density (2,500 RU); CR2-fH1–5 injected at 0–1,000 nM, 30 μL/min; Langmuir 1:1 fit.
For experiment [3], the target named is T1, recombinant C3d. Kind of experiment: SPR; Biacore 3000 or T200, 25°C; recombinant C3d amine-coupled on a CM5 chip at high density (4,200 RU); CR2-fH1–5 injected at 0–1,000 nM, 30 μL/min; Langmuir 1:1 fit.
The target of experiment [4] is T1, recombinant C3d. Kind of experiment: SPR; Biacore 3000 or T200, 25°C; recombinant C3d amine-coupled on a CM5 chip at medium density (750 RU); CR2-fH1–5 injected at 0–1,000 nM, 30 μL/min; Langmuir 1:1 fit.

T1 sequence (P01024 1002-1303): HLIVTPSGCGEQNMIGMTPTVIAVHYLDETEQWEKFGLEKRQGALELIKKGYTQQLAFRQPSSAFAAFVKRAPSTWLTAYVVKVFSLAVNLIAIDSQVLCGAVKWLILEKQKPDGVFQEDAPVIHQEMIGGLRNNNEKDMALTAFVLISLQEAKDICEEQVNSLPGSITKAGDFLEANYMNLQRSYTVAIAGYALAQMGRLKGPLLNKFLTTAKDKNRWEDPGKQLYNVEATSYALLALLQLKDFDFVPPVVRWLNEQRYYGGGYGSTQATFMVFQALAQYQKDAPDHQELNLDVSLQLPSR

B1: TT30 (other)
chain: ISCGSPPPILNGRISYYSTPIAVGTVIRYSCSGTFRLIGEKSLLCITKDKVDGTWDKPAPKCEYFNKYSSCPEPIVPGGYKIRGSTPYRHGDSVTFACKTNFSMNGNKSVWCQANNMWGPTRLPTCVSVFPLECPALPMIHNGHHTSENVGSIAPGLSVTYSCESGYLLVGEKIINCLSSGKWSAVPPTCEEARCKSLGRFPNGKVKEPPILRVGVTANFFCDEGYRLQGPPSSRCVIAGQGVAWTKMPVCEEEDCNELPPRRNTEILTGSWSDQTYPEGTQAIYKCRPGYRSLGNVIMVCRKGEWVALNPLRKCQKRPCGHPGDTPFGTFTLTGGNVFEYGVKAVYTCNEGYQLLGEINYRECDTDGWTNDIPICEVVKCLPVTAPENGKIVSSAMEPDREYHFGQAVRFVCNSGYKIEGDEEMHCSDDGFWSKEKPKCVEISCKSPDVINGSPISQKIIYKENERFQYKCNMGYEYSERGDAVCTESGWRPLPSCEEKSCDNPYIPNGDYSPLRIKHRTGDEITYQCRNGFYPATRGNTAKCTSTGWIPAPRCTL
modifications: Limits are not printed. TT30 is taken as CR2 SCR1-4 (the C3d-binding end) fused directly to factor H SCR1-5, from general knowledge of TT30, with limits from the UniProt Sushi domain features. …
In the case of B1, the Kd in the experiment with recombinant C3d [1] was determined as 1080 nM; with recombinant C3d [2], 1890 nM; with recombinant C3d [3], 1890 nM; with recombinant C3d [4], 1260 nM.
